B1: GAS5 Aptamer + GAS5 specific strand (dsDNA)
DNA 1: TGTCTTCATGTCTAGCCAATGTACAGTATTGGCTA
DNA 2: GACATGAAGACAGTTCCT
B2: hnRNPA2B1 Aptamer + hnRNPA2B1 specific strand (dsDNA)
DNA 1: TGCCTATCAGTATGACCAATGTACAGTATTGGTCA
DNA 2: TACTGATAGGCAGTCTGG
B3: ACTB Aptamer + ACTB specific strand (dsDNA)
DNA 1: ACGCAACTAAGTGACCAATGTACAGTATTGGTC
DNA 2: ACTTAGTTGCGTTACACC
B4: miR-223-5p Aptamer + miR-223 specific strand (dsDNA)
DNA 1: ACAAGCTGAGTTCGCCAATGTACAGTATTGGCG
DNA 2: AACTCAGCTTGTCAAATA
B5: PCGEM1 Aptamer + PCGEM1 specific strand (dsDNA)
DNA 1: CCTCAGAAATCTCGGCAATGTACAGTATTGCCG
DNA 2: AGATTTCTGAGGGGAATT
B6: miR-1827 Aptamer + miR-1827 specific strand (dsDNA)
DNA 1: AGTAGATTGAATCGGACAATGTACAGTATTGTCCG
DNA 2: ATTCAATCTACTGCCTCA
B7: NEAT1 Aptamer + NEAT1 specific strand (dsDNA)
DNA 1: TTAGCGCCAAACTAGCAATGTACAGTATTGCTA
DNA 2: GTTTGGCGCTAAACTCTT
B8: GAPDH Aptamer + GAPDH specific strand (dsDNA)
DNA 1: TTCTCAAGACGGAATCAATGTACAGTATTGATT
DNA 2: CCGTCTTGAGAAACCTGC

These binders were tested against Taq DNA polymerase (UniProt P19821 P19821:1-832) (assay: inhibition; >80% signal with target; 1.5 mM MgCl2). Settings: tags: Promega; partial duplex plus stabilizer hairpin.
Taq DNA polymerase, sequence (P19821 whole entry, one chain of several): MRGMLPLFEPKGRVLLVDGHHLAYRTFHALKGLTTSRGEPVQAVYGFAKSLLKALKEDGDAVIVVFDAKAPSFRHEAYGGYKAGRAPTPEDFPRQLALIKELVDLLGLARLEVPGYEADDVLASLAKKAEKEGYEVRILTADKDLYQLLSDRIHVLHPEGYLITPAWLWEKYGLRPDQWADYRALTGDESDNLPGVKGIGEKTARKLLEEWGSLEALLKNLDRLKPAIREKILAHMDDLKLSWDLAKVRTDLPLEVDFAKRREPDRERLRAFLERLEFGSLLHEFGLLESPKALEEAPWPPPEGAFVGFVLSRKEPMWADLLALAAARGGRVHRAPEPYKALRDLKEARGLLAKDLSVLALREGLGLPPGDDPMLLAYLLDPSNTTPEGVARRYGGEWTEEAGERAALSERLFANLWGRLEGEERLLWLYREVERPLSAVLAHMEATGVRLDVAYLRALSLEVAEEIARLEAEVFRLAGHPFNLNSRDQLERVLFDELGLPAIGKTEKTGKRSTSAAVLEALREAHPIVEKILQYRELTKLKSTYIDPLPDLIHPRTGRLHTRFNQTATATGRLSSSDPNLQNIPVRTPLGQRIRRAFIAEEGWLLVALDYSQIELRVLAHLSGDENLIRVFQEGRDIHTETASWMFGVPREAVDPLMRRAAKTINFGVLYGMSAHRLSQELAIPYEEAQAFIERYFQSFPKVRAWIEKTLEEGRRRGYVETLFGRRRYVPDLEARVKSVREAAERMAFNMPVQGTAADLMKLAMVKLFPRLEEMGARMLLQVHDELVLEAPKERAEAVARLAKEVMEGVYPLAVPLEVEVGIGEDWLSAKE

activity, < 10 % signal without target:
B1, B2, B3, B4, B5, B6, B7, B8
